Assay: soluble fraction after stress (log2 fold change); higher = more stays soluble; pooled small domains, quantitative proteomics
Conditions: stress: pH 4
Method in brief: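 Aggregation propensity here comes from the fold change in the soluble amount of each small protein domain after acid stress, measured in pooled custom libraries by high-throughput quantitative proteomics. The acid stress was pH 4. On the log2 scale, higher values mean more of the domain stayed soluble.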

HMNQSYQLWIKDDELGPTPRSVGVLNEHFEVDPAALTNYDAELLRRATFGISLEPRGGSPTGQP
soluble fraction (log2): -0.688

HMNQTPQISYSQFIADVRSGQIKDVNIDSDNRTIVGHKFSGEEFTTFSPGDNKLVDELLNYNVEIKTSP
soluble fraction (log2): -0.125

HMNREEFLSQLERLLYDIPAQEREEALEYYNGYFDDAGKEKEAEVIQELGSPGKVAAIIKADLSG
soluble fraction (log2): -0.605

HMNRETAISIYRILHILEEPYKEVFTLRTLGDLSYREIADIFGKQENWARVTYHRAKLKIREALVS
soluble fraction (log2): -0.71

HMNRIFQERVVPAELDTLRADKVAASLFSDFSRNELAHWIKMGDLSINGGVKKAKDKLFEGDVLILDVEIV
soluble fraction (log2): -0.679

HMNRKILVLLAGKEQITDNVSVMQSIHRYAFINTATINKAQHEILIEKEEIRQEALTLIHEFLK
soluble fraction (log2): 0.0276

HMNRKLKAKATREKIYKSAEKLFSQNDYNKVSVDAIVEAAGVAKGSFYVHFASKDALIAMLINDH
soluble fraction (log2): -0.012

HMNRMKLLREQHNLSQTDLAKILNISRQSYNFYENEKRDPDTTMLIRIADFFNVSLDYLLGRTNN
soluble fraction (log2): -0.0385

HMNRPYVELFSGLGQEEAQQIVQKLQEDEVDYKFSGDSTILVKEDVVDQTKATLVQEGYPKS
soluble fraction (log2): -0.392

HMNSEEINDVRKAVDELPTHLREILLLNYFQQMSYVQISDSLEIPLGTVKSRLHAAVAAFRNAWQSSQEE
soluble fraction (log2): -0.154

HMNSEELFLRRIAQELIDQHGKDLHRIIVVLPSNRSKVFLKKFLFEILGSAFLTPQLMLLPQFVKSIV
soluble fraction (log2): -0.34

HMNSFGWESFVGEKGVTDTDLRPSGWIVIKDKRLFALTEGTFIEKGVSVEILSVEGNRIVVREIS
soluble fraction (log2): -0.711

HMNSHKIIDRLNQMITEKDLSEEMPAITEAFKNNERSAEDLKKYVAENLSKKLNAEEREKFVSLILQYRN
soluble fraction (log2): -0.338

HMNSILFAITKEGGVVYGGKPVGVNGVRPLVRRLLQSEEMPVILQVDEKADAGLVIRVIDESKLGGASKV
soluble fraction (log2): -0.196

HMNSIQEQIEKYVYSLAPVTIERYESLKNGDIEDIEFEKLRKSISSKIINEKIDNKKQVAILSHLKKMYSD
soluble fraction (log2): -0.472

HMNSKIIVESIIKSKNGIAKVADLVEGGVSRQSIKKMYADGYIKRISRGYYTLTSEPVSSDEQVISS
soluble fraction (log2): 0.39

HMNSKMTYSELITSMENKEVESVKISSSGDVASVKLKNSKTEKEVKIPSLDSFMTYTEQYLKTGEITLEE
soluble fraction (log2): -0.0537

HMNSKMTYSELVTNITNKEVESIKISSTGSTASVKLKNSKSEKEVNIPSLDSFMSYTEEYLKTGDFTLDEE
soluble fraction (log2): -0.824

HMNSLKNKNNLIALVGASNDKNKYGNKILLDLVSKGHNVVPINPKEDTVAGLKSYNNVSELSEKPSI
soluble fraction (log2): -0.202

HMNSLPFSNFMNEVEAGRVVEVKIQGNNISGVLANGKTFSTYSPNYPELVEKLSSNGVSIVATPQ
soluble fraction (log2): -0.0501

HMNSRTLAYSDFIRKVDKGEVSAVVIDGEQVQVQTKDGQTFVTIQPQSEQMNDKLVEQLIAKDISVKAERQ
soluble fraction (log2): 0.0565

HMNSSLFLARQVHALRKKAGLTLQQLSRKSDVSVSTLSKIEKGQLSPTYEKIVSLARGLDVPIAALFHE
soluble fraction (log2): ≥ 0.43

HMNSSTVDLAKEFLIDLLSSVEKMPASEVQEEAKNAGYSVASIRRAKDNLNIKPFKDGSAWYWKLPSIFK
soluble fraction (log2): -0.447

HMNSSTYIVTFKVDGEEDIVETYQWGDRIIVPEVEAKDDYVFIGWDAQIPEFMPERNLEFTAI
soluble fraction (log2): -1.67

HMNSTNYQVIITANGGLNIRAGASTAYARIGGYAKGTVVTILAESNGFGKTDKGWISLNYTSKDLD
soluble fraction (log2): 0.148

HMNTAALSLQRRNEIKKWLLEEKTLTVAALSNRFNVTYETIRRDLEILEKEGFLKKVYGGAALNERV
soluble fraction (log2): 0.244

HMNTAIDGLIEKVGMFAMEKKAISVDQVKENFSINGEQAESVIKQLETIGVLGKKNEDGTHTVM
soluble fraction (log2): -0.0986

HMNTDALIGKTGYVTEIVGERHGRIQFSGGEWSARTEGVSIPVGAEVRVDRIDGATAVVSAV
soluble fraction (log2): 0.22

HMNTDVEKQKVFTALFDDYFRRNSMTSLEKQLFLTALKTNFQNAQKTVAKDHPYYATYSLIISAIENYR
soluble fraction (log2): -0.936

HMNTEEKILEKEFLMLYSELGLQPKNIYELMENTGLKYEKLVEMLLQLQLKGLVEQPSYNYYSRL
soluble fraction (log2): -2.46

HMNTEEVGSYLKKLRLEHSFTQKELAGKLYITHQAVSNWEKGKALPDIGILSQLGDIYGISIDNLLLK
soluble fraction (log2): -0.551

HMNTEKRVFAGVENTRLDHFLVEQFPEFSRTFIQQMIKSANVIVNGNIEKASYKLREGDTIMTRPM
soluble fraction (log2): -0.0899

HMNTELFTKNLFNKLEVLLGEKNWKSKTAQLLNISSDAFYKKIRNESQLNLHELLLIKDTFKISIDALLDE
soluble fraction (log2): -0.929

HMNTETAVTKAIDQIQVMMDLRNRSVSFTRDQETGTDIIKVIDDNTGDTIRQMPSEELLTFMKNLTQ
soluble fraction (log2): -0.332

HMNTFKNIFIQEGDLFNLKKNDNQIIFAKEGILINENKKIFRLLNGKIISTNNNRLIGFEFDKIDYNLSN
soluble fraction (log2): -0.0628

HMNTGIPHQEVIKKLYSFAEGGDWKGLKEELNRIKEYTLFYNSVKELADSFEINRLIEKLKTYIF
soluble fraction (log2): -0.0132

HMNTGLSEREHEIAQLVLQGRTYAEIGAELFISPRTAEHHIGQIRRRLAATSRSDLLAKLRVAMNTTEGAG
soluble fraction (log2): -0.567

HMNTISYTELIKQIDEGNVEKVEMTVGSTSVKVKLQGQEEEKKAIVPNTQAFVELIQEKTLEGNQIDLKQN
soluble fraction (log2): 0.0768

HMNTLSPVRILAILDGRSSMAEWQLAEELGVSIDNLSEILNKMSTDGQIRLVPSEDGRMVVP
soluble fraction (log2): -0.0347

HMNTPALRQRTQDVPALLIHFAKYFATKGQTPISFAPDFLEALKDYPWPGNVRELRNLVESMVV
soluble fraction (log2): -0.0956

HMNTPHLTPREREVLKGIVDGLINKEIAARMGVSVATVITHRNNLTEKLGTRSVSALTIFAVMHGIVR
soluble fraction (log2): -0.323

HMNTPNYDVLYRGLADADAGQIMEALQKSNIPFKVDSHSGVLLVPADQVHEARLKLASQGLPRG
soluble fraction (log2): 0.00323

HMNTPTLLLYGGKDHSVPEAGIRHLRAHLSANDRGEYRFYPNAPHLLLQSRQWQQVSQDISQWLAMT
soluble fraction (log2): 0.0454

HMNTRWDDAAQTWLRKVIEQQPVLVQISAAKRLRDQAEQRAREAGEEVVTEQHVKRAGLELGFGEP
soluble fraction (log2): -0.239

HMNTSITVPSLKGLSQEAATLKMERLGLHVEVSDTGFVRSLAFGTVLQQSIAPGEKVKPGRLVYITINSD
soluble fraction (log2): 0.0638

HMNTVAGAISDLSFKVRGSEDIEKLNRLKALSIQAKLDVQGQEEAERLISELEAKYGSLGMTVDKVSGKIA
soluble fraction (log2): 0.192

HMNTYEIIGGDNRARGPVTGEELSQWIREGRASGHTMARVSDGEHWQPLGSFPEFVGPLQGLPW
soluble fraction (log2): -0.163

HMNTYVLPDALKSQLSVEDTGMLTKQLQALPETLAEGVLDSLSQMLSKNTLQNPVGWMLAVMKRAREGNFN
soluble fraction (log2): -0.282

HMNVAVSEADAKAAALERVSGATEADIRMELELDDGYYVYEGDIIYQQKEYEFEIDAQTGKFLKWSEER
soluble fraction (log2): 0.0965

HMNVDLLEARIPIQSHGMRLDQVVAELFPDYSRNRLAAWIKEGRLTVDGKTMKPRDRALASAHVVLEVV
soluble fraction (log2): -0.197

HMNVGKYILTLAAKEGYSQSDVARRTGISRQMLSYIIAGERKLTLPQALKIESLLSLKTGTLILMQDED
soluble fraction (log2): 0.219

HMNVNEIREMYPEGTQIVLTEMRGENQMPYGLKGTVKFVDDAGQIHMKWENGSSLALNINEDTFEKVE
soluble fraction (log2): -0.471

HMNVPATAEAYEALLADAESVGKSLWGHEAKRFAAEQALLSAGLREVIQVDPDKARELALRLRGLLDEYRG
soluble fraction (log2): -1.24

HMNVQGFVFDLAEPLDKVPSIEGFPLKLEDPLTLVAAVNKDRSINALFAELSKLNIKIKSMRNE
soluble fraction (log2): -0.458

HMNVVSIEHIRTHLQNHLSLIGRSIEESFNEAKVIAFVASLFLTHRGYASVSQDMGTNGEIYLQDLW
soluble fraction (log2): -0.0149

HMNVWGLSERELEATRLLIEGFSSKEASARMGISPSTVRSLWGRARAKMGVDSIEDARELVA
soluble fraction (log2): -0.273

HMNYAVTAARRESILNAALEIFGKSGYNGSSVKQVALAVGMTEAGVLHHFGTKSNLLIEVLRV
soluble fraction (log2): ≥ 0.43

HMNYLDVNIPVTSAVWMGKQLPEMGTLIYLTPDKDVEGMLFIKQATKDKPDGEYIEAKVLGYKEGRVLFDF
soluble fraction (log2): -1.48

HMPAEEVPLYKAVVVTTPPNRLRVRFSPAGDFKRWLQSGEEVDVYQELGDWRRIEPNGWSSAEWLQRVG
soluble fraction (log2): 0.00708

HMPAGWIPARIRLADYPQLRSLAWHVQGIDTLTPTEALDIYERNARHLDAQAMSAQEQDLLASLRLALS
soluble fraction (log2): -1.06

HMPALPGNELLRNLMLEHGLKQVDLAEIGSQGVVSEILSGKRRINRRHADLLARRFSLPAELFSR
soluble fraction (log2): -0.0865

HMPANLTPDYFKAEQWYRSASTNEEKMLALEQMLAVMPKHKGTEHLQADLKRKLSQLKDASAQ
soluble fraction (log2): ≥ 0.43

HMPAPAPDIPYHSRVSVRRADGFYEGTWTNTAPILDYTGRWMVNVSLGGKRVFVPVEEVVVH
soluble fraction (log2): -0.384

HMPAPKPSGALSLKDEPLYAASDSKRRSGTVSGTYYRWDGENVNGRMRITNKQENIGKAGQVTGWITAH
soluble fraction (log2): -0.00233

HMPASTSIPYSDFISRVESGDVQEAKIGESAITGTYKDGSQFKTVKPPTLDTNLMPTLIQNKVNVVGVEP
soluble fraction (log2): 0.0215

HMPAVGGVVKGAVVSVGRNEVRLDIGGLAIGIIRGPELDKHVDLRIGDEVEATVITLDNEFGELELSL
soluble fraction (log2): -1.73

HMPAVTEQTKTNLRRAFWQLYEQKPIQKITVKQITDLAGYNRGTFYLYFKDVYDLLDDIENK
soluble fraction (log2): -0.584

HMPAVTEQTRANLRTAFWSLYREKPTSKITVREITDRAGYNRATFYLYYRDVYDLFEQIEQEIL
soluble fraction (log2): -1.36

HMPDAGQRRYLELVTALAGARSLTIDDLERRAIRFAEWGNGYSGRTARQFIDTLLQDRGVAEEL
soluble fraction (log2): -0.935

HMPDAIPLETIIKNVNVLAGFLINSKTFTEDDIVMAYNNIMKIKGDHTDEKTLTNDVYTLLTEMN
soluble fraction (log2): -1.22

HMPDIFDRGTAHITDAASGVAITFTRTFRIPPEVTMTHKGGTVVAIARLVGSITTGGFTAVLENT
soluble fraction (log2): -0.0848

HMPDLQDTLYRLVPEDGSAIGNQSLREKFLSTAKDASDADFEAARDGLVEQGKLTKGKGRGGSVRRAEP
soluble fraction (log2): 0.397

HMPDLSMLDEVLDEYRSQAGSLVTVLQKAQDLYGYLPLTILRHIAEEMNIKPAQVYGVATFYTQFRL
soluble fraction (log2): -0.866

HMPDRQKDIQNWQQIAETLLNMLDKYVAALETGKTGLAEAYKAIFAETLRRLDDRLDPEQFLP
soluble fraction (log2): -1.3

HMPDTETLTPRQRQILDLVQELGFTTIETLAERFGVSAQTVRREIIRLQAGNFLQRFHGGAGLASGGIRSA
soluble fraction (log2): -0.325

HMPDYAFEGVVIKLTHRDYDRWKAGFPDVDLPPYLTARDAWLSEQTPADRKNWFVSTATDLRNFQKREAI
soluble fraction (log2): -0.362
